Experimental data reported in patent publication US9096835B2, “DNA polymerase” (Medical Research Council, priority 2003, dated 2015).

B1: M1: Taq mutant G84A, D144G, K314R, E520G, F598L, A608V, E742G; SEQ ID NO: 1 (protein)
chain: MRGMLPLFEPKGRVLLVDGHHLAYRTFHALKGLTTSRGEPVQAVYGFAKSLLKALKEDGDAVIVVFDAKAPSFRHEAYGGYKAARAPTPEDFPRQLALIKELVDLLGLARLEVPGYEADDVLASLAKKAEKEGYEVRILTADKGLYQLLSDRIHVLHPEGYLITPAWLWEKYGLRPDQWADYRALTGDESDNLPGVKGIGEKTARKLLEEWGSLEALLKNLDRLKPAIREKILAHMDDLKLSWDLAKVRTDLPLEVDFAKRREPDRERLRAFLERLEFGSLLHEFGLLESPKALEEAPWPPPEGAFVGFVLSRREPMWADLLALAAAAGGRVHRAPEPYKALRDLKEARGLLAKDLSVLALREGLGLPPGDDPMLLAYLLDPSNTTPEGVARRYGGEWTEEAGERAALSERLFANLWGRLEGEERLLWLYREVERPLSAVLAHMEATGVRLDVAYLRALSLEVAEEIARLEAEVFRLAGHPFNLNSRDQLERVLFDELGLPAIGKTEKTGKRSTSAAVLGALREAHPIVEKILQYRELTKLKSTYIDPLPDLIHPRTGRLHTRFNQTATATGRLSSSDPNLQNIPVRTPLGQRIRRAFIAEEGWLLVVLDYSQIELRVLAHLSGDENLIRVFQEGRDIHTETASWMFGVPREAVDPLMRRAAKTINFGVLYGMSAHRLSQELAIPYEEAQAFIERYFQSFPKVRAWIEKTLEEGRRRGYVETLFGRRRYVPDLEARVKSVRGAAERMAFNMPVQGTAADLMKLAMVKLFPRLEEMGARMLLQVHDELVLEAPKERAEAVARLAKEVMEGVYPLAVPLEVEVGIGEDWLSAKE
modifications: Mutant Thermus aquaticus DNA polymerase
B2: M4: Taq mutant D58G, R74P, A109T, L245R, R343G, G370D, E520G, N583S, E694K, A743P; SEQ ID NO 2 (protein)
chain: MRGMLPLYEPKGRVLLVDGHHLAYRTFHALKGLTTSRGEPVQAVYGFAKSLLKALKEGGDAVIVVFDAKAPSFPHEAYGGYKAGRAPTPEDFPRQLALIKELVDLLGLTRLEVPGYEADDVLASLAKKAEKEGYEVRILTADKDLYQLLSDRIHVLHPEGYLITPAWLWEKYGLRPDQWADYRALTGDESDNLPGVKGIGEKTARKLLEEWGSLEALLKNLDRLKPAIREKILAHMDDLKLSWDRAKVRTDLPLEVDFAKRREPDRERLRAFLERLEFGSLLHEFGLLESPKALEEAPWPPPEGAFVGFVLSRKEPMWADLLALAAARGGRVHRAPEPYKALGDLKEARGLLAKDLSVLALREGLGLPPDDDPMLLAYLLDPSNTTPEGVARRYGGEWTEEAGERAALSERLFANLWGRLEGEERLLWLYREVERPLSAVLAHMEATGVRLDVAYLRALSLEVAEEIARLEAEVFRLAGHPFNLNSRDQLERVLFDELGLPAIGKTEKTGKRSTSAAVLGALREAHPIVEKILQYRELTKLKSTYIDPLPDLIHPRTGRLHTRFNQTATATGRLSSSDPNLQSIPVRTPLGQRIRRAFIAEEGWLLVALDYSQIELRVLAHLSGDENLIRVFQEGRDIHTETASWMFGVPREAVDPLMRRAAKTINFGVLYGMSAHRLSQELAIPYEEAQAFIKRYFQSFPKVRAWIEKTLEEGRRRGYVETLFGRRRYVPDLEARVKSVREPAERMAFNMPVQGTAADLMKLAMVKLFPRLEEMGARMLLQVHDELVLEAPKERAEAVARLAKEVMEGVYPLAVPLEVEVGIGEDWLSAKE
modifications: Mutant Thermus aquaticus DNA polymerase
B3: 3D1: third round clone, four mismatch extension; SEQ ID NO: 98 (protein)
chain: MAMLPLFEPKGRVLLVDGHHLAYRTFFALKGPTTSRGEPVQVVYGFAKSLLKALKEDGYKAVFVVFDAKAPSFRHKAYEAYRAGRAPTPEDFPRQLALIKELVDLLGFTRLEVPGYEADDVLATLAKKAEKEGYEVRILTADRGLYQLVSDRVAVLHPEGHLITPEWLWEKYGLRPEQWVDFRALVGDPSDNLPGVKGIGEKTALKLLKEWGSLENLLKNLDRVKPENVREKIKAHLEDLRLSLELSRVRTDLPLEVDLAQRREPDREGLRAFLERLEFGSLFHEFGLLESPKALEEAPWPPPEGAFVGFVLSRKEPMWADLLALAAARGGRVHRAPEPYKALRDLKEARGLLAKDLSVLALREGLGLPPGDDPMLLAYLLDPSNTTPEGVARRYGGEWTEEAGERAALSERLFANLWGRLEGEERLLWLYREVERPLSAVLAHMEATGVRLDVAYLRALSLEVAEEIARLEAEVFRLAGHPFNLNSRDQLEMVLFDELRLPALGKTQKTGKRSTSAAVLEALREAHPIVEKILQYRELTKLKSTYIDPLSDLIHPRTGRLHTRFNQTATATGRLSSSDPNLQNIPVRTPLGQRIRRAFIAEEGWLLVVLDYSQIELRVLAHLSGDENLIRVFQEGRDIHTETASWMFGVPREAVDPLMRRAAKTINFGVLYGMSAHRLSQELAIPYEEAQAFIERYFQSFPKVRAWIEKTLEEGRRRGYVETLFGRRRYVPDLEARVKSVREAAERMAFNMPVQGTAADLMKLAMVKLFPRLGETGARMLLQVHDELVLEAPKERAEAVARLAKEAMEGVYPLAVPLEVEVGIGEDWLSAKG
modifications: Mutant Taq polymerase
B4: 3A10: third round clone, abasic site bypass; SEQ ID NO: 86 (protein)
chain: MAMLPLFEPKGRVLLVDGHHLAYRTFFALKGLTTSRGEPVQVVYGFAKSLLKALKEDGYKAVFVVFDAKAPSFRHKAYEAYRAGRAPTPQDFPRQLALIKELVDLLGFTRLEVPGYEADDVLATLAKKAEKEGYEVRILTADRGLYQLVSDRVAVLHPEGHLITPEWLWEKYGLRPEQWVDFRALVGDPSDNLPGVKGIGEKTALKLLKEWGSLENLLKNLDRVKPENVREKIKAHLEDLRLSLELSRVRTDLPLEVDLAQGREPDREGLRAFLERLEFGSLLHEFGLLESPKALEEAPWPPPEGAFVGFVLSRKEPMWADLLALAAARGGRVHQAPEPYKALRDLKEARGLLAKDLSVLALREGLGLPPGDDPMLLAYLLDPSNTTPEGVARRYGGEWTEEAGERAALSERLFANLWGRLEGEERLLWLYREVERPLSAVLAHMETTGVRLDVAYLRALSLEVAEEIARLEAEVFRLAGRPFNLNSRDQLERVLFDELGLPAIGKTEKTGKRSTSAAVLEALREAHPIVEKILQYRELTKLKSTYIDPLPDLIHPRTGRLHTRFNQTATATGRLSSSDPNLQNIPVRTPLGQRIRRAFIAEEGWLLVVLDYSQMELRVLAHLSGDENLIRVFQEGKDIHTQTASWMFGVPPEAVDPLMRRAAKTVNFGVLYGMSAHRLSQELSIPYEEAVAFIERYFQSFPKVRAWIEKTLEEGRRRGYVETLFGRRRYVPDLNARMKSVRGAAERMAFNMPVQGTAADLMKLAMVKLFPRLREMGARMLLQVHDELLLEAPQARAEEVAALAKEAMEKAYPLAVPLEVEVGIGEDWLSAKE
modifications: Mutant Taq polymerase

What was measured:
Type in all cases: biochemical
[1] = PCR with dATP replaced by FITC-12-dATP; conditions: 50 cycle PCR, dATP completely replaced
Experimental: A PCR assay was used to screen and rank clones. Briefly, clones were normalized for activity in PCR with matched primers 3, 4 and activity with mismatched primers 1 and 2 (1 μM each) determined at minimal cycle number (15-25 cycles). Extension capability for different mismatches was determined by the same assay using mismatch primers 2 (C•C mismatch), 5 (A•A mismatch), 6 (G•G mismatch), 7 (G•A mismatch) with matched primer 3 or primer 1 (A•G mismatch) with matched primer 4. Incorporation of unnatural substrates in 50 cycle PCR was carried out using standard conditions and 50 μM […] dNTPs (Promega) or 50 μM FITC-12-dATP (Perkin-Elmer), Rhodamine-5-dUTP (Perkin-Elmer) or Biotin-16-dUTP (Roche) with equivalent amounts of the other 3 dNTPs (all 50 μM). Long PCR was carried out using a two-step cycling protocol as described (22) 94° C. for 2 minutes, followed by 20 cycles of (94° C. 15 sec, 68° C. 30 min) using 5 ng of phage λ DNA (New England Biolabs) template and either primers 9, 10, 11 with primer 12 or primer 13 with primers 10, 14.

[2] = tested on: primer-template DNA substrates; assay: Processivity primer extension assay with and without trap DNA; conditions: for bound polymerase that extended primers to the end of the template: in the presence of trap DNA (single DNA binding event); for processivity compared with wtTaq: even at the lowest enzyme concentrations
Experimental: Processivity was measured using a primer extension assay the presence and absence of trap DNA. Termination probabilities were calculated according to the method of Kokoska et al.
Oligonucleotide primer 32 (5′-GCGGTGTAGAGACGAGTGCGGAG-3′) (SEQ ID NO: 117) was ^32P-labelled and annealed to the template 33 (5′-CTCTCACAAGCAGCCAGGCAAGCTCCGCACTCGTCTCTACACCGCTCCGC-3′ (SEQ ID NO: 118)) (at a primer/template ratio of molar 1/1.5). wtTaq (0.0025 nM; 0.025 nM; 0.25 nM), M1(0.05 nM; 0.5 nM; 5 nM), and M4 (0.05 nM; 0.5 nM; 5 nM) were preincubated with the primer-template DNA substrates (10 nM) in 10 mM Tris-HCl at pH 9.0, 5 mM MgCl2, 50 mM KCl, 0.1% Triton X 100 at 25° C. for 15 min. Reactions were initiated by addition of 100 μM dNTPs with or without trap DNA (1000-fold excess of unlabeled primer-templates). Reactions were performed at 60° C. for 2 min. […] Thus, in the presence of trap DNA, all DNA synthesis resulted from a single DNA binding event. Gel band intensities were calculated using a Phosphoimager and ImageQuant (both Molecular Dynamics) software. Percentage of polymerase molecules, which extended primers to the end of the template was calculated using the formula: In×100%/(I1+I2+ . . . +In), where In is the intensity of the band at position 22 or 23; I1, I2 . . . is the intensity of the band at position 1, 2 . . . . Termination probabilities (τ) were calculated according to the method of Kokoska et al^1, whereby t at a particular template position was calculated as the intensity of the band at this position divided by the sum of the intensity of this band and the band intensities of all longer products.

[3] = tested on: primers with an abasic site seven bases from their 3′ end; assay: Abasic site bypass in PCR; conditions: 176 bp product, 20 cycles of PCR
Experimental: FIG. 10. A list of polymerases selected to extend four mismatches were assayed for their ability to extend abasic sites in PCR. Primers with an abasic site seven bases from their 3′ end were designed. Such primers will prevent exponential amplification of the target sequence, restricting it to […] amplification, unless the abasic site is bypassed. […] (A) Screen which identified clone A10. (B) A further 4 polymerases that display good abasic site bypass. Lane M: markers, Hae III digest of Φ X174.
A list of polymerases selected to extend four mismatches were assayed for their ability to extend abasic sites in PCR (FIG. 10).

Molecule	PCR amplification with FITC-12-dATP [1]	bound polymerase that extended primers to the end of the template [2] [%]	termination probability ([2]; positions 6 and 7)	size of amplification product fully labelled with FITC-12-dATP [1] [kb]	processivity compared with wtTaq [2]	termination probability ([2]; positions 2 through 5)	amplification product in PCR with abasic site primers [3]
wtTaq: Thermus aquaticus (Taq) wild type DNA polymerase [reference compound]	unable to generate any amplification products	13	5%				
B1		28	1%	0.4	processivity equal (or higher) than wtTaq		
B2		15	2-4%		processivity equal (or higher) than wtTaq	13-35%	
B3							produced an amplification product
B4							produced an amplification product
